Data reported in paper PMC3985065 (Protein expression and purification, 2014).

Columns and labels:
[1] = molecular target: T1, mouse glycine N-acyltransferase (mGLYAT) (Mus musculus, UniProt Q91XE0); assay: DTNB assay of CoA-SH release, […] benzoyl-CoA and […] glycine; type: biochemical
T1 sequence (Q91XE0 1-296): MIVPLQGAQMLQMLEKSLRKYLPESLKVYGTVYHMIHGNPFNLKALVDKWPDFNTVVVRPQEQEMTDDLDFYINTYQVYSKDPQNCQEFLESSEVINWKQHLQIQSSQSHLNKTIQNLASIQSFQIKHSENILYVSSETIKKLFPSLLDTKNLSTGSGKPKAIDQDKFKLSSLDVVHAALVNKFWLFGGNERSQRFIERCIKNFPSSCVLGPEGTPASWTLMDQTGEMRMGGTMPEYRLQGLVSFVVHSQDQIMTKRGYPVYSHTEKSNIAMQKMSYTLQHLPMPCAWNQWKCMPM

purified protein [2] = substrate: NCC(=O)O; assay: purified protein; type: biochemical, Mus musculus; settings: benzoyl-CoA (co-substrate) amino donor substrate
purified protein [3] = substrate: CC(C)(COP(=O)(O)OP(=O)(O)OC[C@H]1O[C@@H](n2cnc3c(N)ncnc32)[C@H](O)[C@@H]1OP(=O)(O)O)[C@@H](O)C(=O)NCCC(=O)NCCSC(=O)c1ccccc1; assay: purified protein; type: biochemical, Mus musculus; settings: amino acceptor substrate
purified protein [4] = substrate: CCOC(=O)CN; assay: purified protein; type: biochemical, Mus musculus; settings: benzoyl-CoA (co-substrate) amino donor substrate
purified protein [5] = substrate: CCCC(=O)SCCNC(=O)CCNC(=O)[C@H](O)C(C)(C)COP(=O)(O)OP(=O)(O)OC[C@H]1O[C@@H](n2cnc3c(N)ncnc32)[C@H](O)[C@@H]1OP(=O)(O)O; assay: purified protein; type: biochemical, Mus musculus; settings: amino acceptor substrate
purified protein [6] = substrate: COC(=O)CN; assay: purified protein; type: biochemical, Mus musculus; settings: benzoyl-CoA (co-substrate) amino donor substrate
purified protein [7] = substrate: CCCCCC(=O)SCCNC(=O)CCNC(=O)[C@H](O)C(C)(C)COP(=O)(O)OP(=O)(O)OC[C@H]1O[C@@H](n2cnc3c(N)ncnc32)[C@H](O)[C@@H]1OP(=O)(O)O; assay: purified protein; type: biochemical, Mus musculus; settings: amino acceptor substrate
purified protein [8] = substrate: CC(=O)SCCNC(=O)CCNC(=O)[C@H](O)C(C)(C)COP(=O)(O)OP(=O)(O)OC[C@H]1O[C@@H](n2cnc3c(N)ncnc32)[C@H](O)[C@@H]1OP(=O)(O)O; assay: purified protein; settings: amino acceptor substrate

Molecule CCCCCCCC/C=C\CCCCCCCC(=O)SCCNC(=O)CCNC(=O)[C@H](O)C(C)(C)COP(=O)(O)OP(=O)(O)OC[C@H]1O[C@@H](n2cnc3c(N)ncnc32)[C@H](O)[C@@H]1OP(=O)(O)O [Oleoyl-CoA] has an IC50 [1] of 0.021 ± 0.0034 mM.

With O=C(O)CO [Glycolic acid] the IC50 [1] was 58 ± 4.9 mM.

B1: mouse glycine N-acyltransferase (mGLYAT) (Mus musculus) (protein)
chain: T1 sequence (Q91XE0 1-296)
B1 gave a Km (purified protein [2]) of 6100 ± 1200 µM, a kcat (purified protein [2]) of 3.2 ± 0.12 s⁻¹ and a kcat/Km (purified protein [2]) of 520 ± 20 M⁻¹ s⁻¹. For the same molecule, the Km (purified protein [3]) was 9.4 ± 14 µM, the kcat (purified protein [3]) was 4.2 ± 0.25 s⁻¹ and the kcat/Km (purified protein [3]) was 450000 ± 27000 M⁻¹ s⁻¹. It also gave a Km (purified protein [4]) of 9700 ± 1700 µM, a kcat (purified protein [4]) of 0.57 ± 0.023 s⁻¹ and a kcat/Km (purified protein [4]) of 59 ± 2.3 M⁻¹ s⁻¹. For the same molecule, the Km (purified protein [5]) was 52 ± 7.9 µM, the kcat (purified protein [5]) was 15 ± 0.43 s⁻¹ and the kcat/Km (purified protein [5]) was 290000 ± 8200 M⁻¹ s⁻¹. The Km (purified protein [6]) was 29000 ± 9100 µM, the kcat (purified protein [6]) was 1 ± 0.12 s⁻¹ and the kcat/Km (purified protein [6]) was 35 ± 4.1 M⁻¹ s⁻¹. The Km (purified protein [7]) was 45 ± 3.0 µM, the kcat (purified protein [7]) was 4.6 ± 0.085 s⁻¹ and the kcat/Km (purified protein [7]) was 100000 ± 1900 M⁻¹ s⁻¹. For the same molecule, the Km (purified protein [8]) was 209 ± 43 µM, the kcat (purified protein [8]) was 0.8 s⁻¹ and the kcat/Km (purified protein [8]) was 3800 M⁻¹ s⁻¹.
